Results reported in PMC9482650, “Quantitative fragmentomics allow affinity mapping of interactomes” (Nature Communications, 2022).

T1: SIPA1L3, O60292
T1 sequence (O60292 961-1052, limits assumed, looked up): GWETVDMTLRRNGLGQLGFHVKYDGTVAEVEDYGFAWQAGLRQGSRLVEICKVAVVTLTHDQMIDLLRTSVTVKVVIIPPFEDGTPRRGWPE

T2: NHERF1_2, O14745
T2 sequence (O14745 149-244, limits assumed, looked up): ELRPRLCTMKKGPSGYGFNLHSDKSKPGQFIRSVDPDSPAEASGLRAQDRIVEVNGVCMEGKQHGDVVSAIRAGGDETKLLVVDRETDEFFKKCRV

T3: PDLIM3, Q53GG5
T3 sequence (Q53GG5 1-94, limits assumed, looked up): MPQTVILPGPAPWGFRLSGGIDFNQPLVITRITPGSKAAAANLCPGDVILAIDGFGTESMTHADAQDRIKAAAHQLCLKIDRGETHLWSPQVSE

T4: PREX2_2, Q70Z35
T4 sequence (Q70Z35 672-764, limits assumed, looked up): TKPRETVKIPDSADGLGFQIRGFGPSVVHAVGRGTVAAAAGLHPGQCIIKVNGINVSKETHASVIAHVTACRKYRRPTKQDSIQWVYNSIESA

T5: MPDZ_13, O75970
T5 sequence (O75970 1982-2070, limits assumed, looked up): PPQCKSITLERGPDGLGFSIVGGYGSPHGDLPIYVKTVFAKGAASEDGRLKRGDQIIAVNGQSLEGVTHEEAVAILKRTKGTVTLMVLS

T6: TJP3_1, O95049
T6 sequence (O95049 6-103, limits assumed, looked up): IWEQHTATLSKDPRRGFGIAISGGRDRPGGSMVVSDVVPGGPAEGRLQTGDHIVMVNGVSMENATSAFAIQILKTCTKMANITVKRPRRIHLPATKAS

T7: PDZD2_4, O15018
T7 sequence (O15018 723-823, limits assumed, looked up): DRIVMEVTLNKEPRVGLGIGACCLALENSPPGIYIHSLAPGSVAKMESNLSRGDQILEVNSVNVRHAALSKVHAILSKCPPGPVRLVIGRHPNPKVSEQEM

T8: MLLT4, P55196
T8 sequence (P55196 1002-1103, limits assumed, looked up): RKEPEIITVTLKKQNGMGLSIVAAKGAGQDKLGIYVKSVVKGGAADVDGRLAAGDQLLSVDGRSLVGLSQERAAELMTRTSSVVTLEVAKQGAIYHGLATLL

T9: MPDZ_6, O75970
T9 sequence (O75970 1003-1099, limits assumed, looked up): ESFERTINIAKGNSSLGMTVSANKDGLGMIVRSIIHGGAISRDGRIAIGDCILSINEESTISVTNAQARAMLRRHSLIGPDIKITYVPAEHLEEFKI

T10: PDZD2_5, O15018
T10 sequence (O15018 2617-2716, limits assumed, looked up): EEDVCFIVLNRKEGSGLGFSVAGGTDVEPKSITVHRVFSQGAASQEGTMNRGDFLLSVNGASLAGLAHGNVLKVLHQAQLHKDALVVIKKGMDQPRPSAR

T11: LNX2_4, Q8N448
T11 sequence (Q8N448 595-690, limits assumed, looked up): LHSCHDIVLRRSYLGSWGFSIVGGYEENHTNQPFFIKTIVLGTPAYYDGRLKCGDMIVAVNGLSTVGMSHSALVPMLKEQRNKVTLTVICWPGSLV


Legend:
Assay in all cases: holdup assay
Set-up in all cases: key: below the threshold = too weak to quantify, mostly under pKd 3.1 to 4
Settings in all cases: plain residues with an end cap or a label only (N-terminal biotin on a linker: ttds)
SIPA1L3, O60292 = biological target: T1, SIPA1L3, O60292
NHERF1_2, O14745 = biological target: T2, NHERF1_2, O14745
O43166 = biological target: O43166
Q13009 = biological target: Q13009
AHNAK2, Q8IVF2 = biological target: AHNAK2, Q8IVF2
Sequence of AHNAK2, Q8IVF2 (Q8IVF2 108-193): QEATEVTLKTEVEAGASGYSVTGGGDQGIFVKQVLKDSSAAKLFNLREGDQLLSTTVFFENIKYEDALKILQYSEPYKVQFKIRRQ

PDLIM3, Q53GG5 = biological target: T3, PDLIM3, Q53GG5
LIMK1, P53667 = biological target: LIMK1, P53667
Sequence of LIMK1, P53667 (P53667 155-268): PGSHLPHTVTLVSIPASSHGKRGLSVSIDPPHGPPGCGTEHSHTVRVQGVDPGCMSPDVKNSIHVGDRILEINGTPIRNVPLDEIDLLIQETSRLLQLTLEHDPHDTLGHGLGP

Q96HC4 = biological target: Q96HC4
TJP1_1, Q07157 = biological target: TJP1_1, Q07157
Sequence of TJP1_1, Q07157 (Q07157 18-120): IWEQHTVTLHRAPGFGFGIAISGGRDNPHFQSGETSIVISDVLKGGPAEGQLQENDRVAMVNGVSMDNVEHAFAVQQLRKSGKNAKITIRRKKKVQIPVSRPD

PARD3B_2, Q8TEW8 = biological target: PARD3B_2, Q8TEW8
Sequence of PARD3B_2, Q8TEW8 (Q8TEW8 376-471): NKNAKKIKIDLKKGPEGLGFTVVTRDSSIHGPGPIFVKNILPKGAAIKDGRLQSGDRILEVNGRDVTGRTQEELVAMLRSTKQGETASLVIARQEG

PREX2_2, Q70Z35 = biological target: T4, PREX2_2, Q70Z35
Q5TCQ9 = biological target: Q5TCQ9
MAGI1_5, Q96QZ7 = biological target: MAGI1_5, Q96QZ7
Sequence of MAGI1_5, Q96QZ7 (Q96QZ7 986-1098): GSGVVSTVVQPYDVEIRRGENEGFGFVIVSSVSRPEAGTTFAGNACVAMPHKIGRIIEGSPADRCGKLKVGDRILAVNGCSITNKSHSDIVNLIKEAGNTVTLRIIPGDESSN

MPDZ_13, O75970 = biological target: T5, MPDZ_13, O75970
TJP3_1, O95049 = biological target: T6, TJP3_1, O95049
MAGI3_4, Q5TCQ9 = biological target: MAGI3_4, Q5TCQ9
Sequence of MAGI3_4, Q5TCQ9 (Q5TCQ9 716-815): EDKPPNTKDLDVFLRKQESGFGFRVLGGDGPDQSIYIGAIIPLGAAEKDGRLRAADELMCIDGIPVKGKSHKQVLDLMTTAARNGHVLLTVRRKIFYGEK

Q9UMS6 = biological target: Q9UMS6
PDZD2_4, O15018 = biological target: T7, PDZD2_4, O15018
PREX1_1, Q8TCU6 = biological target: PREX1_1, Q8TCU6
Sequence of PREX1_1, Q8TCU6 (Q8TCU6 608-718): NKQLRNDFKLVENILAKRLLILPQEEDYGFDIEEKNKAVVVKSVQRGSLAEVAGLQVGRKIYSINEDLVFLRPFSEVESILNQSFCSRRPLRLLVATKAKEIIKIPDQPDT

LMO7, Q8WWI1 = biological target: LMO7, Q8WWI1
Sequence of LMO7, Q8WWI1 (Q8WWI1 1037-1138): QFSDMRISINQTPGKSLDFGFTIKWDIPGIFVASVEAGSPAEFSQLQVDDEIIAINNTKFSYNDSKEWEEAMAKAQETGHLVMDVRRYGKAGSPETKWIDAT

MLLT4, P55196 = biological target: T8, MLLT4, P55196
Q8IUC4 = biological target: Q8IUC4
MPDZ_6, O75970 = biological target: T9, MPDZ_6, O75970
PDZD2_5, O15018 = biological target: T10, PDZD2_5, O15018
LNX2_4, Q8N448 = biological target: T11, LNX2_4, Q8N448
O15021 = biological target: O15021

Row | Binder | pKd (SIPA1L3, O60292) | pKd (NHERF1_2, O14745) | pKd (O43166) | pKd (Q13009) | pKd (AHNAK2, Q8IVF2) | pKd (PDLIM3, Q53GG5) | pKd (Q96HC4) | pKd (TJP1_1, Q07157) | pKd (PARD3B_2, Q8TEW8) | pKd (PREX2_2, Q70Z35) | pKd (Q5TCQ9) | pKd (MAGI1_5, Q96QZ7) | pKd (MPDZ_13, O75970) | pKd (TJP3_1, O95049) | pKd (MAGI3_4, Q5TCQ9) | pKd (Q9UMS6) | pKd (PDZD2_4, O15018) | pKd (PREX1_1, Q8TCU6) | pKd (LMO7, Q8WWI1) | pKd (MLLT4, P55196) | also measured
1 | RTRQRNETQV [HPV51-E6, P26554] | below the threshold | below the threshold | below the threshold | below the threshold | below the threshold | below the threshold | below the threshold | below the threshold | 4.39 | below the threshold | below the threshold | below the threshold | below the threshold | below the threshold | below the threshold | below the threshold | 4.34 | below the threshold | below the threshold | below the threshold | pKd (LIMK1, P53667): below the threshold; pKd (Q8IUC4): below the threshold; pKd (MPDZ_6, O75970): below the threshold; pKd (PDZD2_5, O15018): below the threshold; pKd (LNX2_4, Q8N448): below the threshold
2 | IQREDQETAV [DGKZ, Q13574] | below the threshold | below the threshold | below the threshold | below the threshold | below the threshold | below the threshold | below the threshold | below the threshold | below the threshold | below the threshold | below the threshold | 5.06 | below the threshold | below the threshold | below the threshold | below the threshold | below the threshold | below the threshold | below the threshold | below the threshold | pKd (O15021): below the threshold; pKd (Q8IUC4): below the threshold; pKd (MPDZ_6, O75970): below the threshold; pKd (PDZD2_5, O15018): below the threshold; pKd (LNX2_4, Q8N448): below the threshold
